Results as given in patent US20100203031.

Tests used:
Test in all cases: cell_activity
[1] = system: HprCH3.3 G19S/HprCH3.4 G19S heterodimer chain1: G19S,Y33H,42A,43L; chain2: G19S,S32T,Y33H,Q44R,R68Y,R70S,72T,D75N,I77N; details: [none]; no LacZ+ foci
[2] = system: HprCH3.3 G19S/HprCH3.4 heterodimer chain1: G19S,Y33H,42A,43L; chain2: S32T,Y33H,Q44R,R68Y,R70S,72T,D75N,I77N; details: [none]; CHO chromosomal assay, maximum
[3] = system: HprCH3.3/HprCH3.4 G19S heterodimer chain1: Y33H,42A,43L; chain2: G19S,S32T,Y33H,Q44R,R68Y,R70S,72T,D75N,I77N; details: [none]; CHO chromosomal assay, maximum
[4] = system: HprCH3.3/HprCH3.4 heterodimer chain1: KNSHQS/QRRDI/42A43L (Y33H,42A,43L); chain2: KNTHQS/RYSNN/72T (S32T,Y33H,Q44R,R68Y,R70S,72T,D75N,I77N); details: [none]; CHO chromosomal assay, maximum
[5] = system: HBB5 H3 I132V/H4a heterodimer H3: 30S,33H,38R,44K,68Y,70S,77T,I132V; H4a: 19S,32T,44A,70S,75E,77R,80K,96R; details: [none]; yeast beta-galactosidase value
[6] = system: HBB5 H3 I132V/H4b heterodimer H3: 30S,33H,38R,44K,68Y,70S,77T,I132V; H4b: 24V,43L,44A,70S,75E,77R,80K,87L,96R; details: [none]; yeast beta-galactosidase value
[7] = system: HBB5 H3 V105A I132V/H4a heterodimer H3: 30S,33H,38R,44K,68Y,70S,77T,V105A,I132V; H4a: 19S,32T,44A,70S,75E,77R,80K,96R; details: [none]; yeast beta-galactosidase value
[8] = system: HBB5 H3 V105A I132V/H4b heterodimer H3: 30S,33H,38R,44K,68Y,70S,77T,V105A,I132V; H4b: 24V,43L,44A,70S,75E,77R,80K,87L,96R; details: [none]; yeast beta-galactosidase value
[9] = system: HBB5 H3 V105A/H4a heterodimer H3: 30S,33H,38R,44K,68Y,70S,77T,V105A; H4a: 19S,32T,44A,70S,75E,77R,80K,96R; details: [none]; yeast beta-galactosidase value
[10] = system: HBB5 H3 V105A/H4b heterodimer H3: 30S,33H,38R,44K,68Y,70S,77T,V105A; H4b: 24V,43L,44A,70S,75E,77R,80K,87L,96R; details: [none]; yeast beta-galactosidase value
[11] = system: HBB5 H3/H4a heterodimer H3: 30S,33H,38R,44K,68Y,70S,77T; H4a: 19S,32T,44A,70S,75E,77R,80K,96R; details: [none]; yeast beta-galactosidase value
[12] = system: HBB5 H3/H4b heterodimer H3: 30S,33H,38R,44K,68Y,70S,77T; H4b: 24V,43L,44A,70S,75E,77R,80K,87L,96R; details: [none]; yeast beta-galactosidase value

Sequence	activity (LacZ repair frequency) [1]	activity (LacZ repair frequency) [2]	activity (LacZ repair frequency) [3]	activity (LacZ repair frequency) [4]	activity [5]	activity [6]	activity [7]	activity [8]	activity [9]	activity [10]	activity [11]	activity [12]
TCGAGATGTCATGAAAGAGATGGA (double strand) [HprCH3]	< 6e-06	0.0115	0.012	0.002								
TTGGTCTCCTTAAACCTGTCTTGA (double strand) [HBB5]					0.49	0.37	0.77	0.56	0.47	0.37	0.34	0.29
